Columns and labels:
[1] = molecular target: T1, RalGAPα2 (RGα2), full length, co-expressed in Expi293F and purified by FLAG affinity (UniProt Q2PPJ7 1-1873); experiment: cryo-EM structure; RGα2/RGβ/κB-Ras2 complex from Expi293F, FLAG affinity and Superose 6 in 20 mM HEPES pH 7.5, 150 mM NaCl, 2 mM MgCl2, 1 mM TCEP; single particle analysis of the half-particle, 3.8 Å overall; settings: both partners purified
T1 construct: RalGAPα2, catalytic α-subunit of the RalGAP2 complex; catalytic asparagine N1742; residues 1-73 not resolved in the map; residue numbers (N1742, R1738, N943) are used together with human patient variants; also called RGα2^fl; source: Expi293F cells, transfected, purified (M2 anti-FLAG beads, 3xFLAG peptide elution; Superose 6 for cryo-EM)
T1 sequence (Q2PPJ7 whole entry, the tested form may be a part): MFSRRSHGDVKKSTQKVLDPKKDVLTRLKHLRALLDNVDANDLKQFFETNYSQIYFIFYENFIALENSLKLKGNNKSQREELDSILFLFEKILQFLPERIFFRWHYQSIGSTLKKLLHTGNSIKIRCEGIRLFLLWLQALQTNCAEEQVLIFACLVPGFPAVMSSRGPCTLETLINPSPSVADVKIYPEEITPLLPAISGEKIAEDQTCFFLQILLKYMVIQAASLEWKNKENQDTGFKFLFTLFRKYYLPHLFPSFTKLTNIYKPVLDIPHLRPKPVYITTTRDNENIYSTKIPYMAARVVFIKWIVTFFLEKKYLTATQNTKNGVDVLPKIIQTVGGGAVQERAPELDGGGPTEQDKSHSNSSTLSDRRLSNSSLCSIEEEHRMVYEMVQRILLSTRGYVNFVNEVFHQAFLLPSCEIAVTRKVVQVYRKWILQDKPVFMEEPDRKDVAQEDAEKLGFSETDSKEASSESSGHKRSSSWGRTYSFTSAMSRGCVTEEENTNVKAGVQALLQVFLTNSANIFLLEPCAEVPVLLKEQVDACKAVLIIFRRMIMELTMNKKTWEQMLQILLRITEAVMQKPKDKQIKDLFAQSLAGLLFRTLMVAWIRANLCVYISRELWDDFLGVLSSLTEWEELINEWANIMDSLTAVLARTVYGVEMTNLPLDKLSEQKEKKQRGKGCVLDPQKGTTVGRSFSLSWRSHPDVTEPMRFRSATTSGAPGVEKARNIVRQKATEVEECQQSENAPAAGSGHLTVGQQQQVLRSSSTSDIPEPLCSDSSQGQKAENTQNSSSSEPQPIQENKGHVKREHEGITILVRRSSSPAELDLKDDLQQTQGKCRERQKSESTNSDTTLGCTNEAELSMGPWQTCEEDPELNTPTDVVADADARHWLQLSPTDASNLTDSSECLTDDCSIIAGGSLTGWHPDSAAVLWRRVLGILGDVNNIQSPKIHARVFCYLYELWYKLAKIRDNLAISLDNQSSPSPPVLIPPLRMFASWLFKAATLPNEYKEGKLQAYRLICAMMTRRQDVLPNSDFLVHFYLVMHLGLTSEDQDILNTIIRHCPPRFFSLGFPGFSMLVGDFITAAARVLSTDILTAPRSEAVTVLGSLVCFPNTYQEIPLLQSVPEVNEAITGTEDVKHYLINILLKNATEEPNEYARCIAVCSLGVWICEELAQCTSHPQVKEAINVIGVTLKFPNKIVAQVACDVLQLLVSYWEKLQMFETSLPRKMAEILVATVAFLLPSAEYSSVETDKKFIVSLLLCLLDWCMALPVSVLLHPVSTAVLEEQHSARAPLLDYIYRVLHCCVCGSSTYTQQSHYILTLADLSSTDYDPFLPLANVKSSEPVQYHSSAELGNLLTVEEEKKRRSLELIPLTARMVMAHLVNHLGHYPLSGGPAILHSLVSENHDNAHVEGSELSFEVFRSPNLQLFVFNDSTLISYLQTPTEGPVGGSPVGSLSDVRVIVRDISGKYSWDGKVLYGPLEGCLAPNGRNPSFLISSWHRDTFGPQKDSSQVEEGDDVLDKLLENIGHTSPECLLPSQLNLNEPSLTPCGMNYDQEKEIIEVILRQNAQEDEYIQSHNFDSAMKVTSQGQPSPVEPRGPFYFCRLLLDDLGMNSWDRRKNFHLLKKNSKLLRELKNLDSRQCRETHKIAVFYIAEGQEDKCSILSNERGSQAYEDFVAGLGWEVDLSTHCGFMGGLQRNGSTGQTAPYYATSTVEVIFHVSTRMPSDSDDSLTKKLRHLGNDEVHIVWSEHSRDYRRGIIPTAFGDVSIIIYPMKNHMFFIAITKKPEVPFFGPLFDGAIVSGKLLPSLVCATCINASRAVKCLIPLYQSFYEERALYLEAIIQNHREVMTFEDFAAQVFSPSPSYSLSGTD

[2] = molecular target: the molecule itself; experiment: as above

binding result [1]: binds
B1: RalGAPβ (RGβ), full length, co-expressed in Expi293F and co-purified with FLAG-RGα2 (natural protein, UniProt Q86X10 1-1494, looked up)
chain: MYSEWRSLHLVIQNDQGHTSVLHSYPESVGREVANAVVRPLGQVLGTPSVAGSENLLKTDKEVKWTMEVICYGLTLPLDGETVKYCVDVYTDWIMALVLPKDSIPLPVIKEPNQYVQTILKHLQNLFVPRQEQGSSQIRLCLQVLRAIQKLARESSLMARETWEVLLLFLLQINDILLAPPTVQGGIAENLAEKLIGVLFEVWLLACTRCFPTPPYWKTAKEMVANWRHHPAVVEQWSKVICALTSRLLRFTYGPSFPAFKVPDEDASLIPPEMDNECVAQTWFRFLHMLSNPVDLSNPAIISSTPKFQEQFLNVSGMPQELNQYPCLKHLPQIFFRAMRGISCLVDAFLGISRPRSDSAPPTPVNRLSMPQSAAVSTTPPHNRRHRAVTVNKATMKTSTVSTAHASKVQHQTSSTSPLSSPNQTSSEPRPLPAPRRPKVNSILNLFGSWLFDAAFVHCKLHNGINRDSSMTAITTQASMEFRRKGSQMSTDTMVSNPMFDASEFPDNYEAGRAEACGTLCRIFCSKKTGEEILPAYLSRFYMLLIQGLQINDYVCHPVLASVILNSPPLFCCDLKGIDVVVPYFISALETILPDRELSKFKSYVNPTELRRSSINILLSLLPLPHHFGTVKSEVVLEGKFSNDDSSSYDKPITFLSLKLRLVNILIGALQTETDPNNTQMILGAMLNIVQDSALLEAIGCQMEMGGGENNLKSHSRTNSGISSASGGSTEPTTPDSERPAQALLRDYALNTDSAAGLLIRSIHLVTQRLNSQWRQDMSISLAALELLSGLAKVKVMVDSGDRKRAISSVCTYIVYQCSRPAPLHSRDLHSMIVAAFQCLCVWLTEHPDMLDEKDCLKEVLEIVELGISGSKSKNNEQEVKYKGDKEPNPASMRVKDAAEATLTCIMQLLGAFPSPSGPASPCSLVNETTLIKYSRLPTINKHSFRYFVLDNSVILAMLEQPLGNEQNDFFPSVTVLVRGMSGRLAWAQQLCLLPRGAKANQKLFVPEPRPVPKNDVGFKYSVKHRPFPEEVDKIPFVKADLSIPDLHEIVTEELEERHEKLRSGMAQQIAYEIHLEQQSEEELQKRSFPDPVTDCKPPPPAQEFQTARLFLSHFGFLSLEALKEPANSRLPPHLIALDSTIPGFFDDIGYLDLLPCRPFDTVFIFYMKPGQKTNQEILKNVESSRTVQPHFLEFLLSLGWSVDVGRHPGWTGHVSTSWSINCCDDGEGSQQEVISSEDIGASIFNGQKKVLYYADALTEIAFVVPSPVESLTDSLESNISDQDSDSNMDLMPGILKQPSLTLELFPNHTDNLNSSQRLSPSSRMRKLPQGRPVPPLGPETRVSVVWVERYDDIENFPLSELMTEISTGVETTANSSTSLRSTTLEKEVPVIFIHPLNTGLFRIKIQGATGKFNMVIPLVDGMIVSRRALGFLVRQTVINICRRKRLESDSYSPPHVRRKQKITDIVNKYRNKQLEPEFYTSLFQEVGLKNCSS
notes: RalGAPβ, common regulatory β-subunit of the RalGAP complexes; In the RalGAP tetramer two RGα2/RGβ heterodimers are joined by two RGβ; also called RGβ^fl; RGβ^WT; source: Expi293F cells, transfected, co-purified with RGα2 (M2 anti-FLAG beads; Superose 6 for cryo-EM)
binding result [2]: binds

Reference: publication PMC12311180, “Structure and mechanism of the RalGAP tumor suppressor complex” (Nature Communications, 2025)
